# Data: the nanobody polyreactivity screen of Harvey et al. (2022)
# Experiment: yeast display, Sf9 membrane polyspecificity reagent, FACS + sequencing; frameworks hold sequencing errors
# How it was run: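 Genes from sorted yeast were amplified by colony PCR, read by MiSeq 2 × 250 sequencing and filtered on CDR length. These cells carried a synthetic nanobody library in Saccharomyces cerevisiae BJ5465 and were sorted by FACS into low and high (top ~1%) gates on anti-HA and streptavidin fluorescence. Polyreactivity is labelled according to the gate of origin.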
sequence,measurement,value
QVQLVESGRGLVQAGGSLRLSCAASGRIFPFYAMGWYRQAPGKERELVAAISSSGGSTYYADSVKGRFTISRDNAKNTVYLQMNSLKPEDTAVYYCAATRNSDGMGYWGQGTLVTVSS,polyreactivity (PSR sort gate),low polyreactivity
QVQLVESGRGLVQAGGSLRLSCAASGRIFRSYAMGWYIPAPGKERELFAAISRSGGSTYYADSVKGRFTISRDNGKNTVYLQMNSLKPEDTAVYYCASRYSLGTNSKFFAYGYWGQGTQVNVSS,polyreactivity (PSR sort gate),high polyreactivity
QVQLVESGRGLVQAGGSLRLSCAASGRTFGYYAMGWYRKAPGKERELVAASTYSGARTYYADSVKGRFTISRDNAKNTVYLQRNSLKPEDTAVYYCAADTYYDDGYYYWCQGTQVTVSS,polyreactivity (PSR sort gate),high polyreactivity
QVQLVESGRGLVQAGGSLRLSCAASGRTFWYYAMGWYRQAPGKERELDARISSSGGSTYADSVKGRFTISRDNAKNTVYLHMNSLKPEDTAVYYCAADRHYWKADPSQGYQHYYWGQGTQVTVSS,polyreactivity (PSR sort gate),high polyreactivity
QVQLVESGRGLVQAGGSLRLSCAASGRTFYSNAMGWYRQAPGKERELVAGINWSGVSTYYADSVKGRFTISRDNAKNTVYLQMNSLKPEDTAVYYCAADTYAGYNGNYWGQGTQVTVSS,polyreactivity (PSR sort gate),high polyreactivity
QVQLVESGRGLVQAGGSLRLSCAASGSICGYYTMGWYRQAPGKERELVAAITSGGSTNYADSVKGRFTISRDNAKNTVYLQMNSLKPEDTAVYYCAKVSYYPWRYDYWGQGTQVTVSS,polyreactivity (PSR sort gate),low polyreactivity
QVQLVESGRGLVQAGGSLRLSCAASGSIFEINAMGWYRQAPGIERELVAAITGSGGSTHYADSVKGRFTISRDNAKNTVSLQMNSLKPEDTAVYYCAAVPRYQYGYWGQGTQVTVSS,polyreactivity (PSR sort gate),low polyreactivity
QVQLVESGRGLVQAGGSLRLSCAASGSIFGGNGRGWSRQAPGKERELVAAITYSGGSTYYADSVKGRFTISRDNAKNTVYFQMNSLKPEDTAVYYCAKPSRVSIGYDYWGQGTQVTVSS,polyreactivity (PSR sort gate),low polyreactivity
QVQLVESGRGLVQAGGSLRLSCAASGSIFISYAKGWYRQAPGKERELVAAITWSGDSTYYADSVKGRFTISRDNAKNTVYLQMNSLKPEDTAVYYCAKGQSRSLIYGRYGYWGQGTQVTVSS,polyreactivity (PSR sort gate),low polyreactivity
QVQLVESGRGLVQAGGSLRLSCAASGSIFRRYAMGWYRQAPGKERELVAGITRSGGNTYYADSVKGRFTISRDNAKNTVYLQMNSLKPEDTAVYYCAARHRYNIRTYDAWGQGTQVTVSS,polyreactivity (PSR sort gate),high polyreactivity
QVQLVESGRGLVQAGGSLRLSCAASGSNFRAYAMGWSRQAPGKERELVAAISIGGRTYYADSVKGRFTISRDNAKNTVYLQMNSLKPEDTAVYYCAAVRSYVKGGMYYWGQGTQVTVSS,polyreactivity (PSR sort gate),low polyreactivity
QVQLVESGRGLVQAGGSLRLSCAASGSTFGWYSMGWYRQAPGKERELVTAITSSGDSTYYADSVKGRFTISRDNAKNTVYLQMNSLKPEDTAVYYCAADYADLNDYWGQGTQVTVSS,polyreactivity (PSR sort gate),low polyreactivity
QVQLVESGRGLVQAGGSLRLSCAASGSTFIPYVMGWYRKAPGKEREFVAAIRWSGGRTRYADSVKGRFTLSRDNAKNTVYLQMNSLKPEDTAVYYCAAYRLSKPFYKYDYWGQGTQVTVSS,polyreactivity (PSR sort gate),high polyreactivity
QVQLVESGRGLVQAGGSLRLSCAASGSTFRYNTMGSYRQAPGKERELVAAITGGGGSTYYADSVKGRFTISRDNAKNTVYLQMNSMKPEDTAVYYCATRSYALGYDYGGQGTQVTVSS,polyreactivity (PSR sort gate),low polyreactivity
QVQLVESGRGLVQAGGSLRLSCAASGSTFSRYTMGWYRQAPGKERELVAAISYRGGSTYYADSVKGRFTISRDNAKNTVYLQMNSLKPEDTAVYYRAAEYRVEGSDYDYWGQGTQVTVSS,polyreactivity (PSR sort gate),low polyreactivity
QVQLVESGRGLVQAGGSLRLSCAASGYIFVYNAMGWYRQAPGKERELVAAITDGGGSTYADSVKGRFTISRDNAKNTVYLQMMSLNPEDTADYYCAARYSDTTWYVLYYYWGQGTQVTVSS,polyreactivity (PSR sort gate),low polyreactivity
QVQLVESGRGLVQAGGSLRLSCASSGRIFRYYDMGWYRQAPGKERDFVAAITRSGAITYYADSVKGRFTISRDNAKNTVYLQMNSLKPEDTAVYYCNADFQDRTYDYDYWGQGTQVTVSS,polyreactivity (PSR sort gate),low polyreactivity
QVQLVESGRGLVQAGGSLRLSCASSGTILERYVMGWYRQAPGKERELVAAITISRGSTYYADSVKGRFTISRDNAKNTVYLEMTRLKPEDTAVYYCAARNRYWGQGTKVTVSS,polyreactivity (PSR sort gate),high polyreactivity
QVQLVESGRGLVQAGGSLRLSCAVSGSIGVYAMGWYRQAPGKERELVAAISKRGGSTRYADSVKGRFTISRDNAKNTVYLQMNSLKPEDTAVYYCAATGSVTGPRYAYDYWGQGTQVTVSS,polyreactivity (PSR sort gate),high polyreactivity
QVQLVESGRGLVQAGGSLRLSCPASGRTFSTNAMGWYRQAPGKEREFVAVISSSSGSTYYADSVKGRFTISRDNAKNTVYLQMNSLKPEDTAVYYCAAGYRYRVSYSVYEFYYWGQGTQVTVSS,polyreactivity (PSR sort gate),high polyreactivity
QVQLVESGRGLVQAGGSLRLSSAASGSTFVNYDMGWYRQATGKERELVAAITSSGDSTYYADSVKGRFTISRDNAKNTVYLQMNSLKPEDTAVYYCNRDDAGIMDYWGQGTQVTVSS,polyreactivity (PSR sort gate),low polyreactivity
QVQLVESGRGLVQAGVSLRLSCAASGFIFYDYAMGWYRPAPGTERELVAAISSGGSTNYADSVKGLFTISRDNAKNTVYLQMNSLKPEDTAVYYCAADVRSYATWKRDYDYWGQGTQVTVSS,polyreactivity (PSR sort gate),low polyreactivity
QVQLVESGRGLVQAGVSLRLSCAASGRIFTYYAMGWYRQAPGKERELVAAITTRGGRTRYADSVKGRFTISRDNAKITVYLQMNSLKPEDTAVYYCARGHSSVGPQYDYWGQGTQVTVSS,polyreactivity (PSR sort gate),high polyreactivity
QVQLVESGRGLVQAQGSLRLSCAASGRIFNYNAMGWYRQAPGNERELVAVISRRGGSTYYADSVKGRFTISRDYAKNTVYLQMNSLKPEDTAVYYCGADLPSYPYEYWGLGTQVTVSS,polyreactivity (PSR sort gate),low polyreactivity
QVQLVESGRGLVQEGGSLRLSCAASGRIFSAYAMGWYRQAPVKERELVAAITWSGANTDYADSVKGRFTISRDNAKNNVYLQMNSLKPEDTAVYYCNASVGRDSAYDYLGQGTQVTVSS,polyreactivity (PSR sort gate),low polyreactivity
QVQLVESGRGVVQAGGSLRLSRADSGIIFLDHAMGWYRQAPGKEWELVAGINGGGRTDYADSVQGRFTISRDNAKNTVYLQMNSLTPEDTAVYYCAAESSWYSPDVNFWGQGTQVTVSS,polyreactivity (PSR sort gate),low polyreactivity
QVQLVESGVALVQAGGSLRLSCAASGSILYPYAMGWYRQAPGKERELVAAITKTDGSTYYADSVKWRFTISRDNAKNTVYLQMNSLTPEDTAVYCCNAKWTLRWYFPYWSEYDYWGQGTQVTVSS,polyreactivity (PSR sort gate),low polyreactivity
QVQLVESGVCIVQAGGSLRLRCASSGSSLLNNAMGWYRQAPGKERELVAAITWSGGDTYYADSVKGRFTISRDNAKNTVYLQMNCLLQEDTAVYDCAADRYQWLTAYTDDLDHDYWGQGTQVTVSS,polyreactivity (PSR sort gate),high polyreactivity
QVQLVESGVCLVQAGGSLRLSCAASGRIFYYYTMGWYRQAPGKERELVAAITSGGSTYYADSVKGSFTISRDNAKNTVYLQMNSLKPEDTAVYYCNAEFDDKYDYWGQGTQVTVSS,polyreactivity (PSR sort gate),low polyreactivity
QVQLVESGVCLVQAGGSLRLSCAATGSIFEYNAMGWYRQAHGKERELVAAITRGGNTYYADSVKGLFTISRDNAKNTVYLQMNSLKPEDTAVYYCAAVEWYGYPYYYWGQGTQVTVSS,polyreactivity (PSR sort gate),low polyreactivity
QVQLVESGVCLVQSGGSLRLICAASGRIITPYTMGWYRQAPGKERELVATITWSGGSTYYADSVKGRFTISRDNSKNTVYLQMNSLKPEDTAVYYCAARQIYVWAEYDYWGQGTQVTVSS,polyreactivity (PSR sort gate),low polyreactivity
QVQLVESGVGIVQAGGSLRLSCAASGSTLVYYDMGWYRQAPGKERELVATITGTDSTYYADSVKGRFTISRDNAKNTVYLQMNSLKPEDTADCAADRAGSRPDYDYWGQGTQVTVSS,polyreactivity (PSR sort gate),low polyreactivity
QVQLVESGVGLVESGGSLRLSCASSGSTFVYTAMCWYRQSPGKERELVAAISWSGGSTYYADSVKGRFTISRDNAKKTVYLQMNSQKPEDTAVYYCAADGNPPAAMDYRGQGTQVTVSS,polyreactivity (PSR sort gate),low polyreactivity
QVQLVESGVGLVKAGGSLRLSCATSGLILYRYVMGWYRQAAGKERQLVAAISSSGGRTYYADSVKGRFTISRDNAKNTVYLQMNSLKPEDTAVYYCAKRRSDARRGYDYLGQGTQVTVSS,polyreactivity (PSR sort gate),high polyreactivity
QVQLVESGVGLVLAGGSLRLSCAASGRTFWSYAMGWYRKAPGKERELVAAITWSGTSTDYAVSVKGRFTISRDNAKNRVYLLMKSLKPEDTAVYYCAAIVYGQYRSRYYYWGQGTEVTVSS,polyreactivity (PSR sort gate),high polyreactivity
QVQLVESGVGLVQAARSLRLSCAASGRTFGSYAMGWYRQAPGKEREFVAGISYGGGRTYYADSVKGRFTISRDTAKNTVYLQMNSLKPADTAVYYCAADGVYRYNYPYLYTYDYWGQGTQVTVSS,polyreactivity (PSR sort gate),low polyreactivity
QVQLVESGVGLVQAGGSHRLSCAASGRTLWYYAIGWYRQAPGKERELVASIRRRTGSTYYAESVKGRFTISRDNAKNTVYLQLNSLKPEDTAVYYCAAKGFLRNGYWGQGTQVTVSS,polyreactivity (PSR sort gate),high polyreactivity
QVQLVESGVGLVQAGGSHRLSCAASGSIFGFYVMGWYRQAPGKERELVAAISRGGTRTYYADSVKGRFTISRDNAKNTVYLQMNSLKPEDTAVYYCAKYDGGSGTGPRSDYWGQGTQVTVSS,polyreactivity (PSR sort gate),high polyreactivity
QVQLVESGVGLVQAGGSLLLICAASGRIFGANAMGLYRQAPGKERELVAAISRTGGSTNYADSVKGRFTISRDNAINTVFLQMYSLKPEDTAVYYCNAVYRYAHPMEYWGQGTQVTVSS,polyreactivity (PSR sort gate),high polyreactivity
QVQLVESGVGLVQAGGSLLLSCAASGFISGSYAIGWYRQAPGKERELVADISRRGSSTYYADSVKGRFTISRDNAKNTVYLQMNSLKPEDTAVYVCNAVPYGNGAMDYWGQGTQVTVSS,polyreactivity (PSR sort gate),high polyreactivity
QVQLVESGVGLVQAGGSLRLICAASGSTFQPNVMGWYRQAPGKERELDAAIRGSSGNTYYADSVKGRFTISRDHAKNTVYLQMNSLKPEDTAVYYCAALFLFKTSSPYRYYYWGQGTQVTVSS,polyreactivity (PSR sort gate),high polyreactivity
QVQLVESGVGLVQAGGSLRLICAASGSTFYRNAMGWYRHAPGKERELVAGISRRGGSTYYADSVKGRFTISRDIAKNRVYLQMNSLIPEDTAVYYCNADYPGIPHNDYWGQGTQVNVSS,polyreactivity (PSR sort gate),low polyreactivity
QVQLVESGVGLVQAGGSLRLSCAASGFIFPYYTMGWFRPAPGKERELVAAINVSGGSTYYADSVKGRFTISRDNAKNTVYVQMNSLKPEDTAVYYCAAVGGRFVGRSTMDYWGQGTQVTVSS,polyreactivity (PSR sort gate),low polyreactivity
